In paper PMC5074588, “TCS1, a Microtubule-Binding Protein, Interacts with KCBP/ZWICHEL to Regulate Trichome Cell Shape in Arabidopsis thaliana” (PLoS Genetics, 2016):

Target: tubulins (tubulin dimers; paclitaxel-stabilized microtubules)
Experiment: co-sedimentation; different concentrations of the protein added to paclitaxel-stabilized microtubules (prepolymerized from 8 uM tubulins in Fig 5A, 5 uM in S7 Fig) in PEMT buffer (1 mM MgCl2, 1 mM EGTA, 100 mM PIPES, 20 uM taxol, pH 6.9); 25 C 30 min; 100,000g 30 min; SDS-PAGE, Coomassie
Conditions: both partners purified

Chain of tubulins (tubulin dimers; paclitaxel-stabilized microtubules) (chain, as listed by the source, chain 1 of 2): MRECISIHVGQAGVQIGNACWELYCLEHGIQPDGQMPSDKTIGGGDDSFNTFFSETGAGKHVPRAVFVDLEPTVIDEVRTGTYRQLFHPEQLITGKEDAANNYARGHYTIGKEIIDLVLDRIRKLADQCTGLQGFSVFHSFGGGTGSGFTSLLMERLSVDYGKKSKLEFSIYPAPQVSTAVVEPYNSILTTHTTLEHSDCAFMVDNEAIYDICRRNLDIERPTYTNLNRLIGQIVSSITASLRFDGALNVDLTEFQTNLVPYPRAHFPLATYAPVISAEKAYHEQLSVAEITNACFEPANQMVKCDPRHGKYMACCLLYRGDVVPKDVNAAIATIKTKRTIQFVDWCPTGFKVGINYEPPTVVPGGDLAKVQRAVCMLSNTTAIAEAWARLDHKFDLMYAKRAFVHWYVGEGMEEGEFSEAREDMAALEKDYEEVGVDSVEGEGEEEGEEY
Chain of tubulins (tubulin dimers; paclitaxel-stabilized microtubules) (chain, as listed by the source, chain 2 of 2): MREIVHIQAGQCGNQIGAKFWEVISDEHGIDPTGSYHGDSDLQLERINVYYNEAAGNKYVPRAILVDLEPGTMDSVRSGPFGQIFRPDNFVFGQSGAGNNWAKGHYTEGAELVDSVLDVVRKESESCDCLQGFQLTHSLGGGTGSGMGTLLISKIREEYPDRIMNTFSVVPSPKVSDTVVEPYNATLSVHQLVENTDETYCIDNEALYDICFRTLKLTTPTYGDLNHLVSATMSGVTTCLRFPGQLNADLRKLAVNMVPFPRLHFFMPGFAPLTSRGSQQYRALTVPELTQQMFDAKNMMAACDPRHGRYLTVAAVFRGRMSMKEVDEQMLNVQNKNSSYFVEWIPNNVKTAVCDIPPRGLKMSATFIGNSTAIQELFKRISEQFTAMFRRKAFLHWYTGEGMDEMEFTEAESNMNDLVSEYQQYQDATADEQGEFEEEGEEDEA

B1: MBP-TCS1 (TRICHOME CELL SHAPE 1 fused to maltose binding protein) (natural protein, Arabidopsis thaliana, UniProt Q0WSY2 1-982, looked up)
chain: MDRKSWPWKKKSSEKTATVTEVVDQENGKKPSYIQISFDQYTNLNGLKDEVKSYEEKVTKLEDQIKDLDLKLSTANADIVAKEVLVKQHSKVAEEAVTGWEKAEAEASALKTHLETITLAKLTVEDRAAHLDGALKECMRQIRSLKEENEQKLHDVIATKTNQMDNLRAEFESRIGEYEEELLRCGAENDALSRSLQERSNMLMRISEEKSQAESEIEHLKNNIESCEREINTLKYETHVITKELEIRNEEKNMSMRSAEAANKQHLEGVKKIAKLEAECQRLRTLVRKKLPGPAALAQMKMEVESLGFGDHRQDHRQRRSPVRPSSPLMSPMSHMSQVSEFSLDNMQKFHKENDLLTERLLAMEEETKMLKEALAKRNSELQVSRNLCAKTANRLQTLEAQMMSKSPTKRGFEMPAEIFSRQNASNPPSMASMSEDGNEDARSVAGSLMSELSQSNKDKANAKIKKTESANQLELMDDFLEMEKLACLPNGSNANGSTDHSSADSDAEIPPATQLKKRISNVLQSLPKDAAFEKILAEIQCAVKDAGVKLPSKSHGANLNGLTEEKVIAMSNETTEEKVTIVEVITQELSDALSQIYQFVTYLSKEATACSENRTFSQKVQEFSTTFEGVLGKEKTLVDFLFDLSRVLVEASELKIDVLGFHTSTVEIHSPDCIDKVALPENKALQKDSSGEHYQNGCSQSSDSEIPDDCNGTSGYEPKLATCKFTTEEFEGLKLEKEKAESNLASCEADLEATKTKLQETEKLLAEVKSDLESAQKSNGMGETQLKCMVESYRSLETRSSELEIELTSLKGKIENLEDELHDEKENHREALAKCQELEEQLQRNNQNCPNCSVIEDDPKSKQDNELAAAAEKLAECQETILLLGKQLKSMCPQTEQVASSPSQEQQALNPEEEEYATSTNPQDSKLSSPSDKDTPSMNTMKSPVASKHRHTKSNSSSSSSGLTPEKHSRGFSRFFSTKAK
notes: TCS1, Arabidopsis thaliana, At1g19835, a 982-amino-acid coiled-coil protein; also called MBP-TCS1 fusion protein; source: E. coli Rosetta (DE3); bacterial lysate in the pull-downs
stoichiometry N: ~0.38 M MBP-TCS1 per mole of tubulin dimers
